Results from publication doi:10.1101/2020.06.03.131664 (2020).

How the values were obtained:
Experiment in all cases: SPR; bivalent fitting model
[1] = target: HAdV-D26 capsid (human adenovirus type 26, species D, replication-defective vector particle) (human adenovirus type 26 (species D))
[2] = target: HAdV-C5 capsid (human adenovirus type 5, species C, replication-defective vector particle) (human adenovirus type 5 (species C), UniProt P04133 1-952)
[3] = target: HAdV-B35 capsid (human adenovirus type 35, species B, replication-defective vector particle) (human adenovirus type 35 (species B))

HAdV-C5 capsid (human adenovirus type 5, species C, replication-defective vector particle), sequence (P04133 whole entry, looked up): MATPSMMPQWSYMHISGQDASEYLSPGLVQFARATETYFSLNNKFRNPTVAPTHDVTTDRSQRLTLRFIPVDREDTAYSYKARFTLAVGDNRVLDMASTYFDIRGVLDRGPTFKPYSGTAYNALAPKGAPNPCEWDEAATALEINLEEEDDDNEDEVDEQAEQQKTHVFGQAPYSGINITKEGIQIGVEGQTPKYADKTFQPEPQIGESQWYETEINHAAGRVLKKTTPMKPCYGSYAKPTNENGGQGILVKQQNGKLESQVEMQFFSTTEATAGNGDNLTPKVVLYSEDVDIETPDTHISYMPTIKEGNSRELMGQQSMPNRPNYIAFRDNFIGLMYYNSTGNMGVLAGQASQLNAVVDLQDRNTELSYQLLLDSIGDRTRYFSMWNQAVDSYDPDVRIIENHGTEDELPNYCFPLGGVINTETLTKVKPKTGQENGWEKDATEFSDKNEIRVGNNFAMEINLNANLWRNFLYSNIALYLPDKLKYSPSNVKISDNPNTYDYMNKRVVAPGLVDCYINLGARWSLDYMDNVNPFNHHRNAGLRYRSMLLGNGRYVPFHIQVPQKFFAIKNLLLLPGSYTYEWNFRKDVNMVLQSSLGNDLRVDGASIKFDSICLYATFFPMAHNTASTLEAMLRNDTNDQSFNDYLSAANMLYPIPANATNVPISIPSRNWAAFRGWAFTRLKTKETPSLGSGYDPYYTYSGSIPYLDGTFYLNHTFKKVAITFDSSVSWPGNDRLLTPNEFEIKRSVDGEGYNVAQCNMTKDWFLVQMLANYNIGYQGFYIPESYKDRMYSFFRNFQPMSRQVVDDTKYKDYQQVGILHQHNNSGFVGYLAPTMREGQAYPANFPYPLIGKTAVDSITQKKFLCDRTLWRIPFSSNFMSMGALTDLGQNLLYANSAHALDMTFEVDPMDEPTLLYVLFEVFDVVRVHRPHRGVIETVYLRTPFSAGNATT

B1: human lactoferrin (natural protein)
chain: GRRRSVQWCAVSQPEATKCFQWQRNMRKVRGPPVSCIKRDSPIQCIQAIAENRADAVTLDGGFIYEAGLAPYKLRPVAAEVYGTERQPRTHYYAVAVVKKGGSFQLNELQGLKSCHTGLRRTAGWNVPIGTLRPFLNWTGPPEPIEAAVARFFSASCVPGADKGQFPNLCRLCAGTGENKCAFSSQEPYFSYSGAFKCLRDGAGDVAFIRESTVFEDLSDEAERDEYELLCPDNTRKPVDKFKDCHLARVPSHAVVARSVNGKEDAIWNLLRQAQEKFGKDKSPKFQLFGSPSGQKDLLFKDSAIGFSRVPPRIDSGLYLGSGYFTAIQNLRKSEEEVAARRARVVWCAVGEQELRKCNQWSGLSEGSVTCSSASTTEDCIALVLKGEADAMSLDGGYVYTAGKCGLVPVLAENYKSQQSSDPDPNCVDRPVEGYLAVAVVRRSDTSLTWNSVKGKKSCHTAVDRTAGWNIPMGLLFNQTGSCKFDEYFSQSCAPGSDPRSNLCALCIGDEQGENKCVPNSNERYYGYTGAFRCLAENAGDVAFVKDVTVLQNTDGNNNEAWAKDLKLADFALLCLDGKRKPVTEARSCHLAMAPNHAVVSRMDKVERLKQVLLHQQAKFGRNGSDCPDKFCLFQSETKNLLFNDNTECLARLHGKTTYEKYLGPQYVAGITNLKKCSTSPLLEACEFLRK
- Kd [1]: 2550 nM
- Kd [2]: 800 nM
- Kd [3]: 54 µM
